6 molecules from US20210139548A1 (published 2021) can be followed below.

One may read the Ki as the equilibrium dissociation constant of an inhibitor or competing ligand from its target. A lower Ki goes with a stronger hold on the target.

The labels stand for the following.
T1: human neuropeptide Y2 receptor (human, UniProt P49146 1-381)
T1 construct: whole, on cells; also called hNPY2 receptor; hNPY2-R
T1 sequence (looked up): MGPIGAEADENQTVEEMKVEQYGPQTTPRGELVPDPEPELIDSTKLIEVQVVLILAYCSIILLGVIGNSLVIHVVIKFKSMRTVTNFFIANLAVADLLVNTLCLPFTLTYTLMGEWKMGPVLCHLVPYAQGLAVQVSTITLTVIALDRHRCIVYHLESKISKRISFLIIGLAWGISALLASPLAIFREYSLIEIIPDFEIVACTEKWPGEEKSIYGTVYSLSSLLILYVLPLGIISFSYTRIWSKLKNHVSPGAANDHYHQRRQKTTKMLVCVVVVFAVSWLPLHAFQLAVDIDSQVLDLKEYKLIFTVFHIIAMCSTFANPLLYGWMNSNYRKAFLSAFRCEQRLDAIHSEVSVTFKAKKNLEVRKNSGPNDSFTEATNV

B1: Compound 160 (peptide)
peptide: Isovaleryl-APEK([AEEA-AEEA-γGlu-C18 diacid])PEADAEPEELQRYYTSLRHYYNWLTRQRY-NH2
SMILES: CC(C)CC(=O)N[C@@H](C)C(=O)N1CCC[C@H]1C(=O)N[C@@H](CCC(=O)O)C(=O)N[C@@H](CCCCNC(=O)COCCOCCNC(=O)COCCOCCNC(=O)CC[C@H](NC(=O)CCCCCCCCCCCCCCCCC(=O)O)C(=O)O)C(=O)N1CCC[C@H]1C(=O)N[C@@H](CCC(=O)O)C(=O)N[C@@H](C)C(=O)N[C@@H](CC(=O)O)C(=O)N[C@@H](C)C(=O)N[C@@H](CCC(=O)O)C(=O)N1CCC[C@H]1C(=O)N[C@@H](CCC(=O)O)C(=O)N[C@@H](CCC(=O)O)C(=O)N[C@@H](CC(C)C)C(=O)N[C@@H](CCC(N)=O)C(=O)N[C@@H](CCCNC(=N)N)C(=O)N[C@@H](Cc1ccc(O)cc1)C(=O)N[C@@H](Cc1ccc(O)cc1)C(=O)N[C@H](C(=O)N[C@@H](CO)C(=O)N[C@@H](CC(C)C)C(=O)N[C@@H](CCCNC(=N)N)C(=O)N[C@@H](Cc1c[nH]cn1)C(=O)N[C@@H](Cc1ccc(O)cc1)C(=O)N[C@@H](Cc1ccc(O)cc1)C(=O)N[C@@H](CC(N)=O)C(=O)N[C@@H](Cc1c[nH]c2ccccc12)C(=O)N[C@@H](CC(C)C)C(=O)N[C@H](C(=O)N[C@@H](CCCNC(=N)N)C(=O)N[C@@H](CCC(N)=O)C(=O)N[C@@H](CCCNC(=N)N)C(=O)N[C@@H](Cc1ccc(O)cc1)C(N)=O)[C@@H](C)O)[C@@H](C)O
B2: Compound 165 (peptide)
peptide: Isovaleryl-APEK([AEEA-AEEA-γGlu-C18 diacid])PEEDASPEELQRYQVSLRHYYNWLTRQRY-NH2
SMILES: CC(C)CC(=O)N[C@@H](C)C(=O)N1CCC[C@H]1C(=O)N[C@@H](CCC(=O)O)C(=O)N[C@@H](CCCCNC(=O)COCCOCCNC(=O)COCCOCCNC(=O)CC[C@H](NC(=O)CCCCCCCCCCCCCCCCC(=O)O)C(=O)O)C(=O)N1CCC[C@H]1C(=O)N[C@@H](CCC(=O)O)C(=O)N[C@@H](CCC(=O)O)C(=O)N[C@@H](CC(=O)O)C(=O)N[C@@H](C)C(=O)N[C@@H](CO)C(=O)N1CCC[C@H]1C(=O)N[C@@H](CCC(=O)O)C(=O)N[C@@H](CCC(=O)O)C(=O)N[C@@H](CC(C)C)C(=O)N[C@@H](CCC(N)=O)C(=O)N[C@@H](CCCNC(=N)N)C(=O)N[C@@H](Cc1ccc(O)cc1)C(=O)N[C@@H](CCC(N)=O)C(=O)N[C@H](C(=O)N[C@@H](CO)C(=O)N[C@@H](CC(C)C)C(=O)N[C@@H](CCCNC(=N)N)C(=O)N[C@@H](Cc1c[nH]cn1)C(=O)N[C@@H](Cc1ccc(O)cc1)C(=O)N[C@@H](Cc1ccc(O)cc1)C(=O)N[C@@H](CC(N)=O)C(=O)N[C@@H](Cc1c[nH]c2ccccc12)C(=O)N[C@@H](CC(C)C)C(=O)N[C@H](C(=O)N[C@@H](CCCNC(=N)N)C(=O)N[C@@H](CCC(N)=O)C(=O)N[C@@H](CCCNC(=N)N)C(=O)N[C@@H](Cc1ccc(O)cc1)C(N)=O)[C@@H](C)O)C(C)C
B3: Compound 163 (peptide)
peptide: Isovaleryl-APEK([AEEA-AEEA-γGlu-C18 diacid])PEEAASPEELQRYYVALRHYYNWLTRQRY-NH2
SMILES: CC(C)CC(=O)N[C@@H](C)C(=O)N1CCC[C@H]1C(=O)N[C@@H](CCC(=O)O)C(=O)N[C@@H](CCCCNC(=O)COCCOCCNC(=O)COCCOCCNC(=O)CC[C@H](NC(=O)CCCCCCCCCCCCCCCCC(=O)O)C(=O)O)C(=O)N1CCC[C@H]1C(=O)N[C@@H](CCC(=O)O)C(=O)N[C@@H](CCC(=O)O)C(=O)N[C@@H](C)C(=O)N[C@@H](C)C(=O)N[C@@H](CO)C(=O)N1CCC[C@H]1C(=O)N[C@@H](CCC(=O)O)C(=O)N[C@@H](CCC(=O)O)C(=O)N[C@@H](CC(C)C)C(=O)N[C@@H](CCC(N)=O)C(=O)N[C@@H](CCCNC(=N)N)C(=O)N[C@@H](Cc1ccc(O)cc1)C(=O)N[C@@H](Cc1ccc(O)cc1)C(=O)N[C@H](C(=O)N[C@@H](C)C(=O)N[C@@H](CC(C)C)C(=O)N[C@@H](CCCNC(=N)N)C(=O)N[C@@H](Cc1c[nH]cn1)C(=O)N[C@@H](Cc1ccc(O)cc1)C(=O)N[C@@H](Cc1ccc(O)cc1)C(=O)N[C@@H](CC(N)=O)C(=O)N[C@@H](Cc1c[nH]c2ccccc12)C(=O)N[C@@H](CC(C)C)C(=O)N[C@H](C(=O)N[C@@H](CCCNC(=N)N)C(=O)N[C@@H](CCC(N)=O)C(=O)N[C@@H](CCCNC(=N)N)C(=O)N[C@@H](Cc1ccc(O)cc1)C(N)=O)[C@@H](C)O)C(C)C
B4: Compound 166 (peptide)
peptide: Isovaleryl-APEK([AEEA-AEEA-γGlu-C18 diacid])PPADASPEELQRYYVELRHYYNWLTRQRY-NH2
SMILES: CC(C)CC(=O)N[C@@H](C)C(=O)N1CCC[C@H]1C(=O)N[C@@H](CCC(=O)O)C(=O)N[C@@H](CCCCNC(=O)COCCOCCNC(=O)COCCOCCNC(=O)CC[C@H](NC(=O)CCCCCCCCCCCCCCCCC(=O)O)C(=O)O)C(=O)N1CCC[C@H]1C(=O)N1CCC[C@H]1C(=O)N[C@@H](C)C(=O)N[C@@H](CC(=O)O)C(=O)N[C@@H](C)C(=O)N[C@@H](CO)C(=O)N1CCC[C@H]1C(=O)N[C@@H](CCC(=O)O)C(=O)N[C@@H](CCC(=O)O)C(=O)N[C@@H](CC(C)C)C(=O)N[C@@H](CCC(N)=O)C(=O)N[C@@H](CCCNC(=N)N)C(=O)N[C@@H](Cc1ccc(O)cc1)C(=O)N[C@@H](Cc1ccc(O)cc1)C(=O)N[C@H](C(=O)N[C@@H](CCC(=O)O)C(=O)N[C@@H](CC(C)C)C(=O)N[C@@H](CCCNC(=N)N)C(=O)N[C@@H](Cc1c[nH]cn1)C(=O)N[C@@H](Cc1ccc(O)cc1)C(=O)N[C@@H](Cc1ccc(O)cc1)C(=O)N[C@@H](CC(N)=O)C(=O)N[C@@H](Cc1c[nH]c2ccccc12)C(=O)N[C@@H](CC(C)C)C(=O)N[C@H](C(=O)N[C@@H](CCCNC(=N)N)C(=O)N[C@@H](CCC(N)=O)C(=O)N[C@@H](CCCNC(=N)N)C(=O)N[C@@H](Cc1ccc(O)cc1)C(N)=O)[C@@H](C)O)C(C)C
B5: Compound 170 (peptide)
peptide: Isovaleryl-APEK([AEEA-AEEA-γGlu-C18 diacid])PEEEASPEELEQYYVSLRHYYNWLTRQRY-NH2
SMILES: CC(C)CC(=O)N[C@@H](C)C(=O)N1CCC[C@H]1C(=O)N[C@@H](CCC(=O)O)C(=O)N[C@@H](CCCCNC(=O)COCCOCCNC(=O)COCCOCCNC(=O)CC[C@H](NC(=O)CCCCCCCCCCCCCCCCC(=O)O)C(=O)O)C(=O)N1CCC[C@H]1C(=O)N[C@@H](CCC(=O)O)C(=O)N[C@@H](CCC(=O)O)C(=O)N[C@@H](CCC(=O)O)C(=O)N[C@@H](C)C(=O)N[C@@H](CO)C(=O)N1CCC[C@H]1C(=O)N[C@@H](CCC(=O)O)C(=O)N[C@@H](CCC(=O)O)C(=O)N[C@@H](CC(C)C)C(=O)N[C@@H](CCC(=O)O)C(=O)N[C@@H](CCC(N)=O)C(=O)N[C@@H](Cc1ccc(O)cc1)C(=O)N[C@@H](Cc1ccc(O)cc1)C(=O)N[C@H](C(=O)N[C@@H](CO)C(=O)N[C@@H](CC(C)C)C(=O)N[C@@H](CCCNC(=N)N)C(=O)N[C@@H](Cc1c[nH]cn1)C(=O)N[C@@H](Cc1ccc(O)cc1)C(=O)N[C@@H](Cc1ccc(O)cc1)C(=O)N[C@@H](CC(N)=O)C(=O)N[C@@H](Cc1c[nH]c2ccccc12)C(=O)N[C@@H](CC(C)C)C(=O)N[C@H](C(=O)N[C@@H](CCCNC(=N)N)C(=O)N[C@@H](CCC(N)=O)C(=O)N[C@@H](CCCNC(=N)N)C(=O)N[C@@H](Cc1ccc(O)cc1)C(N)=O)[C@@H](C)O)C(C)C
B6: Compound 169 (peptide)
peptide: Isovaleryl-APEK([AEEA-AEEA-γGlu-C18 diacid])PEEEASPEELQRYYVALRHYYNWLTRQRY-NH2
SMILES: CC(C)CC(=O)N[C@@H](C)C(=O)N1CCC[C@H]1C(=O)N[C@@H](CCC(=O)O)C(=O)N[C@@H](CCCCNC(=O)COCCOCCNC(=O)COCCOCCNC(=O)CC[C@H](NC(=O)CCCCCCCCCCCCCCCCC(=O)O)C(=O)O)C(=O)N1CCC[C@H]1C(=O)N[C@@H](CCC(=O)O)C(=O)N[C@@H](CCC(=O)O)C(=O)N[C@@H](CCC(=O)O)C(=O)N[C@@H](C)C(=O)N[C@@H](CO)C(=O)N1CCC[C@H]1C(=O)N[C@@H](CCC(=O)O)C(=O)N[C@@H](CCC(=O)O)C(=O)N[C@@H](CC(C)C)C(=O)N[C@@H](CCC(N)=O)C(=O)N[C@@H](CCCNC(=N)N)C(=O)N[C@@H](Cc1ccc(O)cc1)C(=O)N[C@@H](Cc1ccc(O)cc1)C(=O)N[C@H](C(=O)N[C@@H](C)C(=O)N[C@@H](CC(C)C)C(=O)N[C@@H](CCCNC(=N)N)C(=O)N[C@@H](Cc1c[nH]cn1)C(=O)N[C@@H](Cc1ccc(O)cc1)C(=O)N[C@@H](Cc1ccc(O)cc1)C(=O)N[C@@H](CC(N)=O)C(=O)N[C@@H](Cc1c[nH]c2ccccc12)C(=O)N[C@@H](CC(C)C)C(=O)N[C@H](C(=O)N[C@@H](CCCNC(=N)N)C(=O)N[C@@H](CCC(N)=O)C(=O)N[C@@H](CCCNC(=N)N)C(=O)N[C@@H](Cc1ccc(O)cc1)C(N)=O)[C@@H](C)O)C(C)C

*1 amine or outer side, *2 acyl side, *3 side chain or, on linkers, in order; H or OH if unused. Side-chain parts run from the residue outwards. The star is where a group is joined. C18 diacid = O=C(O)CCCCCCCCCCCCCCCCC(=O)*; γGlu = O=C(O)[C@H](CCC(=O)[*:2])N[*:1]; Isovaleryl = CC(C)CC(=O)*; AEEA = NCCOCCOCC(=O)O

This experiment deals with T1, human neuropeptide Y2 receptor. Briefly: radioligand competition (125I-PYY(1-36)), hNPY2R membranes. In outline: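 Commercial human Y2 receptor membranes (0.5 μg protein/well) were incubated with peptide for 2 h at room temperature in 50 mM HEPES, 5 mM MgCl₂, 1 mM CaCl₂, pH 7.4, with 0.2% ovalbumin. Bound radioligand was separated on PEI-soaked GF/C filters and counted by scintillation, and IC₅₀ came from nonlinear sigmoidal regression.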
A general note: Displacement assays read how much labelled ligand stays bound in the presence of the test substance.
B1 registered a Ki of 2 nM.

In turn, B2 had a Ki of 2.49 nM.

Consider B3, for which the Ki came to 0.96 nM.

For the molecule B4, the affinity, expressed as Ki, was 0.66 nM.

The molecule B5 displayed a Ki of 12.3 nM.

Molecule B6 had a Ki of 2.34 nM.
